For five molecules, Ki results are on record in US20260015399A1 (Boehringer Ingelheim, published 2026).

The labels stand for the following.
B1: Compound 33 (peptide)
peptide: Isovaleryl-APAK([Ahx-γGlu-C18 diacid])PEEDAEPEELQRYYISLRHYYNWLTRQRY-NH2
SMILES: CC[C@H](C)[C@H](NC(=O)[C@H](Cc1ccc(O)cc1)NC(=O)[C@H](Cc1ccc(O)cc1)NC(=O)[C@H](CCCNC(=N)N)NC(=O)[C@H](CCC(N)=O)NC(=O)[C@H](CC(C)C)NC(=O)[C@H](CCC(=O)O)NC(=O)[C@H](CCC(=O)O)NC(=O)[C@@H]1CCCN1C(=O)[C@H](CCC(=O)O)NC(=O)[C@H](C)NC(=O)[C@H](CC(=O)O)NC(=O)[C@H](CCC(=O)O)NC(=O)[C@H](CCC(=O)O)NC(=O)[C@@H]1CCCN1C(=O)[C@H](CCCCNC(=O)CCCCCNC(=O)CC[C@H](NC(=O)CCCCCCCCCCCCCCCCC(=O)O)C(=O)O)NC(=O)[C@H](C)NC(=O)[C@@H]1CCCN1C(=O)[C@H](C)NC(=O)CC(C)C)C(=O)N[C@@H](CO)C(=O)N[C@@H](CC(C)C)C(=O)N[C@@H](CCCNC(=N)N)C(=O)N[C@@H](Cc1c[nH]cn1)C(=O)N[C@@H](Cc1ccc(O)cc1)C(=O)N[C@@H](Cc1ccc(O)cc1)C(=O)N[C@@H](CC(N)=O)C(=O)N[C@@H](Cc1c[nH]c2ccccc12)C(=O)N[C@@H](CC(C)C)C(=O)N[C@H](C(=O)N[C@@H](CCCNC(=N)N)C(=O)N[C@@H](CCC(N)=O)C(=O)N[C@@H](CCCNC(=N)N)C(=O)N[C@@H](Cc1ccc(O)cc1)C(N)=O)[C@@H](C)O
B2: Compound 38 (peptide)
peptide: Isovaleryl-APEK([Ahx-γGlu-C18 diacid])PEEDATPEELQEYYVSLRHYYNWLTRQRY-NH2
SMILES: CC(C)CC(=O)N[C@@H](C)C(=O)N1CCC[C@H]1C(=O)N[C@@H](CCC(=O)O)C(=O)N[C@@H](CCCCNC(=O)CCCCCNC(=O)CC[C@H](NC(=O)CCCCCCCCCCCCCCCCC(=O)O)C(=O)O)C(=O)N1CCC[C@H]1C(=O)N[C@@H](CCC(=O)O)C(=O)N[C@@H](CCC(=O)O)C(=O)N[C@@H](CC(=O)O)C(=O)N[C@@H](C)C(=O)N[C@H](C(=O)N1CCC[C@H]1C(=O)N[C@@H](CCC(=O)O)C(=O)N[C@@H](CCC(=O)O)C(=O)N[C@@H](CC(C)C)C(=O)N[C@@H](CCC(N)=O)C(=O)N[C@@H](CCC(=O)O)C(=O)N[C@@H](Cc1ccc(O)cc1)C(=O)N[C@@H](Cc1ccc(O)cc1)C(=O)N[C@H](C(=O)N[C@@H](CO)C(=O)N[C@@H](CC(C)C)C(=O)N[C@@H](CCCNC(=N)N)C(=O)N[C@@H](Cc1c[nH]cn1)C(=O)N[C@@H](Cc1ccc(O)cc1)C(=O)N[C@@H](Cc1ccc(O)cc1)C(=O)N[C@@H](CC(N)=O)C(=O)N[C@@H](Cc1c[nH]c2ccccc12)C(=O)N[C@@H](CC(C)C)C(=O)N[C@H](C(=O)N[C@@H](CCCNC(=N)N)C(=O)N[C@@H](CCC(N)=O)C(=O)N[C@@H](CCCNC(=N)N)C(=O)N[C@@H](Cc1ccc(O)cc1)C(N)=O)[C@@H](C)O)C(C)C)[C@@H](C)O
B3: Compound 34 (peptide)
peptide: Isovaleryl-APEK([Ahx-γGlu-C18 diacid])PEEDASAEELQQYYVSLRHYYNWLTRQRY-NH2
SMILES: CC(C)CC(=O)N[C@@H](C)C(=O)N1CCC[C@H]1C(=O)N[C@@H](CCC(=O)O)C(=O)N[C@@H](CCCCNC(=O)CCCCCNC(=O)CC[C@H](NC(=O)CCCCCCCCCCCCCCCCC(=O)O)C(=O)O)C(=O)N1CCC[C@H]1C(=O)N[C@@H](CCC(=O)O)C(=O)N[C@@H](CCC(=O)O)C(=O)N[C@@H](CC(=O)O)C(=O)N[C@@H](C)C(=O)N[C@@H](CO)C(=O)N[C@@H](C)C(=O)N[C@@H](CCC(=O)O)C(=O)N[C@@H](CCC(=O)O)C(=O)N[C@@H](CC(C)C)C(=O)N[C@@H](CCC(N)=O)C(=O)N[C@@H](CCC(N)=O)C(=O)N[C@@H](Cc1ccc(O)cc1)C(=O)N[C@@H](Cc1ccc(O)cc1)C(=O)N[C@H](C(=O)N[C@@H](CO)C(=O)N[C@@H](CC(C)C)C(=O)N[C@@H](CCCNC(=N)N)C(=O)N[C@@H](Cc1c[nH]cn1)C(=O)N[C@@H](Cc1ccc(O)cc1)C(=O)N[C@@H](Cc1ccc(O)cc1)C(=O)N[C@@H](CC(N)=O)C(=O)N[C@@H](Cc1c[nH]c2ccccc12)C(=O)N[C@@H](CC(C)C)C(=O)N[C@H](C(=O)N[C@@H](CCCNC(=N)N)C(=O)N[C@@H](CCC(N)=O)C(=O)N[C@@H](CCCNC(=N)N)C(=O)N[C@@H](Cc1ccc(O)cc1)C(N)=O)[C@@H](C)O)C(C)C
B4: Compound 35 (peptide)
peptide: Isovaleryl-APAK([Ahx-γGlu-C18 diacid])PEEAATPEELQRYYVSLRHYYNWLTRQRY-NH2
SMILES: CC(C)CC(=O)N[C@@H](C)C(=O)N1CCC[C@H]1C(=O)N[C@@H](C)C(=O)N[C@@H](CCCCNC(=O)CCCCCNC(=O)CC[C@H](NC(=O)CCCCCCCCCCCCCCCCC(=O)O)C(=O)O)C(=O)N1CCC[C@H]1C(=O)N[C@@H](CCC(=O)O)C(=O)N[C@@H](CCC(=O)O)C(=O)N[C@@H](C)C(=O)N[C@@H](C)C(=O)N[C@H](C(=O)N1CCC[C@H]1C(=O)N[C@@H](CCC(=O)O)C(=O)N[C@@H](CCC(=O)O)C(=O)N[C@@H](CC(C)C)C(=O)N[C@@H](CCC(N)=O)C(=O)N[C@@H](CCCNC(=N)N)C(=O)N[C@@H](Cc1ccc(O)cc1)C(=O)N[C@@H](Cc1ccc(O)cc1)C(=O)N[C@H](C(=O)N[C@@H](CO)C(=O)N[C@@H](CC(C)C)C(=O)N[C@@H](CCCNC(=N)N)C(=O)N[C@@H](Cc1c[nH]cn1)C(=O)N[C@@H](Cc1ccc(O)cc1)C(=O)N[C@@H](Cc1ccc(O)cc1)C(=O)N[C@@H](CC(N)=O)C(=O)N[C@@H](Cc1c[nH]c2ccccc12)C(=O)N[C@@H](CC(C)C)C(=O)N[C@H](C(=O)N[C@@H](CCCNC(=N)N)C(=O)N[C@@H](CCC(N)=O)C(=O)N[C@@H](CCCNC(=N)N)C(=O)N[C@@H](Cc1ccc(O)cc1)C(N)=O)[C@@H](C)O)C(C)C)[C@@H](C)O
B5: Compound 36 (peptide)
peptide: Isovaleryl-APAK([Ahx-γGlu-C18 diacid])PEEAATPEEIQRYYVSLRHYYNWLTRQRY-NH2
SMILES: CC[C@H](C)[C@H](NC(=O)[C@H](CCC(=O)O)NC(=O)[C@H](CCC(=O)O)NC(=O)[C@@H]1CCCN1C(=O)[C@@H](NC(=O)[C@H](C)NC(=O)[C@H](C)NC(=O)[C@H](CCC(=O)O)NC(=O)[C@H](CCC(=O)O)NC(=O)[C@@H]1CCCN1C(=O)[C@H](CCCCNC(=O)CCCCCNC(=O)CC[C@H](NC(=O)CCCCCCCCCCCCCCCCC(=O)O)C(=O)O)NC(=O)[C@H](C)NC(=O)[C@@H]1CCCN1C(=O)[C@H](C)NC(=O)CC(C)C)[C@@H](C)O)C(=O)N[C@@H](CCC(N)=O)C(=O)N[C@@H](CCCNC(=N)N)C(=O)N[C@@H](Cc1ccc(O)cc1)C(=O)N[C@@H](Cc1ccc(O)cc1)C(=O)N[C@H](C(=O)N[C@@H](CO)C(=O)N[C@@H](CC(C)C)C(=O)N[C@@H](CCCNC(=N)N)C(=O)N[C@@H](Cc1c[nH]cn1)C(=O)N[C@@H](Cc1ccc(O)cc1)C(=O)N[C@@H](Cc1ccc(O)cc1)C(=O)N[C@@H](CC(N)=O)C(=O)N[C@@H](Cc1c[nH]c2ccccc12)C(=O)N[C@@H](CC(C)C)C(=O)N[C@H](C(=O)N[C@@H](CCCNC(=N)N)C(=O)N[C@@H](CCC(N)=O)C(=O)N[C@@H](CCCNC(=N)N)C(=O)N[C@@H](Cc1ccc(O)cc1)C(N)=O)[C@@H](C)O)C(C)C

*1 amine or outer side, *2 acyl side, *3 side chain or, on linkers, in order; H or OH if unused. Side-chain parts run from the residue outwards. The star is where a group is joined. C18 diacid = O=C(O)CCCCCCCCCCCCCCCCC(=O)*; γGlu = O=C(O)[C@H](CCC(=O)[*:2])N[*:1]; Isovaleryl = CC(C)CC(=O)*; Ahx = NCCCCCC(=O)O

For the assay, the target named is T1, human NPY2 receptor (human, UniProt P49146 1-381).
T1 construct: whole, on cells; also called hNPY2-R; hNPY2R
T1 sequence (looked up): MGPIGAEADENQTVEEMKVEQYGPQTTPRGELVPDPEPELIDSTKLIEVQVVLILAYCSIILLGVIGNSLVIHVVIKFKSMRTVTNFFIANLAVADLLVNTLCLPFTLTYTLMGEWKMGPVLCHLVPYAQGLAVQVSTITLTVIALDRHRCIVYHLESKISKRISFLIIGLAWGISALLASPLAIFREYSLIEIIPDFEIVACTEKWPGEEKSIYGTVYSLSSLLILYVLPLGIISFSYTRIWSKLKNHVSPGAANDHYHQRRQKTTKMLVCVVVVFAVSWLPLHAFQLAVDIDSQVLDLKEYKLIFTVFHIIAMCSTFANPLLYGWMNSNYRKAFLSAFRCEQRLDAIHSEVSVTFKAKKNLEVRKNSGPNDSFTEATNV
Nature of the assay: RLB: displacement of 125I-PYY(1-36) from hNPY2R membranes.
For B1, the Ki worked out at 2.53 nM. To B2 belongs 12.4 nM.

In the case of B3, the Ki turned out to be 3.53 nM. The value for B4 was 1.4 nM; that for B5 was 1.25 nM.
